Numbering of substitutions follows the chain as printed.
B1: full-length hNDF mutant MT1 (natural protein)
chain: MAAVSLRLGDLVWGKLGRYPPWPGKIVNPPKDLKKPRGKKCFFVKFFGTEDHAWIKVEQLKPYHAHKEEMIKINKGKRFQQAVDAVEEFLRRAKGKDQTSSHNSSDDKNRRNSSEERSRPNSGDEKRKLSLSEGKVKKNMAAAAARVSSGSSERGSKSPLKRAQEQSPRKRGRPPKDEKDLTIPESSTVKGMMAGPMAAFKWQPTASEPVKDADPHFHHFLLSQTEKPAVCYQAITKKLKICEEETGSTSIQAADSTAVNGSITPTDKKIGFLGLGLMGSGIVSNLLKMGHTVTVWNRTAEKCDLFIQEGARLGRTPAEVVSTCDITFACVSDPKAAKDLVLGPSGVLQGIRPGKCYVDMSTVDADTVTELAQVIVSRGGRFLEAPVSGNQQLSNDGMLVILAAGDRGLYEDCSSCFQAMGKTSFFLGEVGNAAKMMLIVNMVQGSFMATIAEGLTLAQVTGQSQQTLLDILNQGQLASIFLDQKCQNILQGNFKPDFYLKYIQKDLRLAIALGDAVNHPTPMAAAANEVYKRAKALDQSDNDMSAVYRAYIH
B2: full-length hNDF mutant MT2 (residues 146–150) (natural protein)
chain: B1 chain with A141G, A142E, A143G, A144K, A145K, R146A, V147A, S148A, S149A, G150A
B3: full-length hNDF mutant MT4 (residues 156–160) (natural protein)
chain: B1 chain with A141G, A142E, A143G, A144K, A145K, S156A, K157A, S158A, P159A, L160A
B4: full-length hNDF mutant MT3 (natural protein)
chain: B1 chain with A141G, A142E, A143G, A144K, A145K, S151A, S152A, E153A, R154A, G155A

These binders were tested against S. cerevisiae RNA Polymerase II (Pol II) (S. cerevisiae) (UniProt P04050).

Transcription stimulation with calf thymus DNA and yeast Pol II ([α-32P]CTP incorporation), against wild-type hNDF, 50 % reduction:
B1
B2
B3
B4

From paper PMC12112590
